Columns and labels:
plasmin = target: T1, plasmin (Homo sapiens, UniProt P00747); assay: Stability of plasmin solutions (Chromozym TH chromogenic substrate, T 70%); format: physicochemical; settings: 100 μg/ml plasmin in 10 mM HEPES, 0.13 M NaCl, pH 7.4, 37° C.
T1 construct: 100 μg/ml of plasmin (specific activity 3.2 units/mg, Sigma-Aldrich); purchased Sigma-Aldrich
Experimental: The stabilization of solutions of plasmin in accordance with the invention was tested. The activity of plasmin was determined using chromogenic peptide substrate Chromozym TH (Pentapharm, Switzerland) and measurement of absorbance change at 405 nm in a spectrophotometer. Solutions containing 100 μg/ml of plasmin (specific activity 3.2 units/mg, Sigma-Aldrich) in 10 mM HEPES and 0.13 M NaCl, pH 7.4, as well as stabilizers as indicated in Table 2 below were incubated at 37° C., and samples were taken out at various time intervals for activity determination.

trypsin = target: T2, trypsin (Bos taurus, UniProt P00760); assay: Stability of trypsin solutions (TAME substrate, T 70%); format: physicochemical; settings: 100 μg/ml trypsin in 10 mM HEPES, 0.13 M NaCl, pH 7.4, 37° C.
T2 construct: 100 μg/ml of trypsin (TPCK-treated, Sigma-Aldrich); purchased Sigma-Aldrich
T2 sequence (P00760 24-246): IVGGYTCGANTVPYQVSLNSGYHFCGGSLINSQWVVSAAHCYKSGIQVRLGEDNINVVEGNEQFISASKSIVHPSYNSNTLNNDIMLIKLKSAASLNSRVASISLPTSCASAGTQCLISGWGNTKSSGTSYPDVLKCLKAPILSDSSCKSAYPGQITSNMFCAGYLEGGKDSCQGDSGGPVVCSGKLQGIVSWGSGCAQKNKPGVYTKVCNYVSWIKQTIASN
Experimental: The stabilization of solutions of trypsin in accordance with the invention was tested. The activity of trypsin was determined using tosyl arginine methyl ester (TAME) as substrate and measuring the absorbance change at 247 nm in a spectrophotometer. Solutions containing 100 μg/ml of trypsin (TPCK-treated, Sigma-Aldrich) in 10 mM HEPES and 0.13 M NaCl, pH 7.4, as well as stabilizers as indicated in Table 3 below were incubated at 37° C., and samples were taken out at various time intervals for activity determination.

B1: plasmin: plasmin, specific activity 3.2 units/mg, Sigma-Aldrich, solution without additives (protein, UniProt P00747 20-580; P00747 581-810, looked up)
Plasmin heavy chain A: EPLDDYVNTQGASLFSVTKKQLGAGSIEECAAKCEEDEEFTCRAFQYHSKEQQCVIMAENRKSSIIIRMRDVVLFEKKVYLSECKTGNGKNYRGTMSKTKNGITCQKWSSTSPHRPRFSPATHPSEGLEENYCRNPDNDPQGPWCYTTDPEKRYDYCDILECEEECMHCSGENYDGKISKTMSGLECQAWDSQSPHAHGYIPSKFPNKNLKKNYCRNPDRELRPWCFTTDPNKRWELCDIPRCTTPPPSSGPTYQCLKGTGENYRGNVAVTVSGHTCQHWSAQTPHTHNRTPENFPCKNLDENYCRNPDGKRAPWCHTTNSQVRWEYCKIPSCDSSPVSTEQLAPTAPPELTPVVQDCYHGDGQSYRGTSSTTTTGKKCQSWSSMTPHRHQKTPENYPNAGLTMNYCRNPDADKGPWCFTTDPSVRWEYCNLKKCSGTEASVVAPPPVVLLPDVETPSEEDCMFGNGKGYRGKRATTVTGTPCQDWAAQEPHRHSIFTPETNPRAGLEKNYCRNPDGDVGGPWCYTTNPRKLYDYCDVPQCAAPSFDCGKPQVEPKKCPGR
Plasmin light chain B: VVGGCVAHPHSWPWQVSLRTRFGMHFCGGTLISPEWVLTAAHCLEKSPRPSSYKVILGAHQEVNLEPHVQEIEVSRLFLEPTRKDIALLKLSSPAVITDKVIPACLPSPNYVVADRTECFITGWGETQGTFGAGLLKEAQLPVIENKVCNRYEFLNGRVQSTELCAGHLAGGTDSCQGDSGGPLVCFEKDKYILQGVTSWGLGCARPNKPGVYVRVSRFVTWIEGVMRNN
modifications: Plasmin
plasmin
  T 70%: 3 h

B2: trypsin: trypsin, TPCK-treated, Sigma-Aldrich, solution without additives (protein, UniProt P00760 24-246, looked up)
Serine protease 1: IVGGYTCGANTVPYQVSLNSGYHFCGGSLINSQWVVSAAHCYKSGIQVRLGEDNINVVEGNEQFISASKSIVHPSYNSNTLNNDIMLIKLKSAASLNSRVASISLPTSCASAGTQCLISGWGNTKSSGTSYPDVLKCLKAPILSDSSCKSAYPGQITSNMFCAGYLEGGKDSCQGDSGGPVVCSGKLQGIVSWGSGCAQKNKPGVYTKVCNYVSWIKQTIASN
modifications: TPCK-treated
notes: trypsin, TPCK-treated, Sigma-Aldrich, solution without additives
trypsin
  T 70%: 0.6 h

From patent US8574569B2, “Stabilized protease composition” (Trobio AB, priority 2005, dated 2013)
